Assay results published in the supplement of paper PMC10567573.
± gives the standard deviation.

Assay: protein stability index of a GFP-peptide fusion (GPS, HEK-293T) (PSI 1-6); higher = more stable
[1] = treatment: DMSO, c terminus: a fixed tail appended
[2] = treatment: MLN4924 1 uM, 8 h, c terminus: a fixed tail appended
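Also: 24-mer peptide tiles fused after GFP, lentivirally expressed, FACS-sorted into six equal bins by GFP/DsRed ratio, decoded by Illumina sequencing, PSI is the read-weighted mean bin number.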

| Sequence | protein stability index [1] | protein stability index [2] | protein stability index (treatment: DMSO, c terminus: native) | protein stability index (treatment: MLN4924 1 uM, 8 h, c terminus: native) |
| --- | --- | --- | --- | --- |
| SSELETTSFFDSDEDDSTSRFSSS [DVL3] | 5.4 ± 0.32 | 5.51 ± 0.31 |  |  |
| SSESSDAGLCMDSPSPMDPHMAEQ [CDC25B] | 5.675 ± 0.013 | 5.21 ± 0.2 |  |  |
| SSHLQSSKAGPTRIFTSNTHSSVV [KLHL13] | 3.52 ± 0.22 | 3.52 ± 0.2 |  |  |
| SSISSSARRTTRSEPIRRAGKSGT [MAP2] | 4.89 ± 0.26 | 5.09 ± 0.16 |  |  |
| SSPKFREEAAFPGRRVNAKMPVYS [ELOA2] | 3.3 ± 0.17 | 3.48 ± 0.14 |  |  |
| SSQSSLAQEEEEEDQGRTRKRKQS [DDIT3] | 5.55 ± 0.32 | 5.44 ± 0.09 |  |  |
| SSSSSSSSSSSASSSASSSFSEEG [NFE2L1] | 5.43 ± 0.33 | 5.38 ± 0.23 |  |  |
| SSTTILVQWKEPEEPNGQIQGYRV [PTPRD] | 2.91 ± 0.32 | 2.71 ± 0.46 |  |  |
| STCFERPCFKWYTSPWSECTKTCG [ADAMTSL2] | 2.47 ± 0.64 | 2.75 ± 0.57 |  |  |
| STSDSDLTCDSSTSSSDDDEEVSG [C18orf25] | 5.22 ± 0.21 | 5.28 ± 0.13 |  |  |
| STSFLPELSSVHPPHYFFTYRIRI [FBXO3] | 2.66 ± 0.33 | 2.85 ± 0.48 |  |  |
| SVDWLSQSSCSGPTHTPRPADFSL [VENTX] | 3.21 ± 0.25 | 3.28 ± 0.15 |  |  |
| SVVCRELGFGSAKEAVTGSRLGQG [LOXL2] | 3.69 ± 0.41 | 4.12 ± 0.44 |  |  |
| SWGIAGETELALVKESGERKVTDS [DLC1] | 5.14 ± 0.3 | 5.46 ± 0.19 |  |  |
| SYRPAYDQGGPVEILPFLYLGSAY [DUSP5] | 2.08 ± 0.33 | 2.18 ± 0.32 |  |  |
| SYRSFHSGGYGQDALGMDPMMEHE [CTNNB1] | 4.29 ± 0.2 | 4.21 ± 0.25 |  |  |
| TAAPPPPPPSRPSVAVPPPPPNRM [WASL] | 4.82 ± 0.3 | 4.87 ± 0.2 |  |  |
| TALHIACYNGQDAVVNELIDYGAN [ANKRD44] | 2.69 ± 0.27 | 2.86 ± 0.24 |  |  |
| TARVIIPLLKDEGFAVKALWGRTQ [GFOD1] | 2.08 ± 0.32 | 2.27 ± 0.35 |  |  |
| TASTAPPVPATAPSPAPAVAAAAA [SNAP91] | 5.09 ± 0.19 | 5.08 ± 0.12 |  |  |
| TEAESEQEGSSGMELSWGQSPGQP [TEX19] | 5.43 ± 0.24 | 5.26 ± 0.25 |  |  |
| TEDELRVRHLEEENRGIVVLGINR [AUH] | 4.29 ± 0.15 | 4.33 ± 0.39 |  |  |
| TERDEIEDVKCQEDQKLQVLLTQI [TRIM15] | 4.34 ± 0.2 | 4.54 ± 0.12 |  |  |

| Sequence | protein stability index [1] | protein stability index [2] | protein stability index (treatment: DMSO, c terminus: native) | protein stability index (treatment: MLN4924 1 uM, 8 h, c terminus: native) |
| --- | --- | --- | --- | --- |
| TFAMVKGYFFPTSARDCKFTGNFF [DHCR7] | 2.56 ± 0.39 | 2.71 ± 0.43 |  |  |
| TFLKAFPLMGETQERERVLTHFSR [PSD2] | 2.45 ± 0.21 | 2.63 ± 0.39 |  |  |
| TFLSRILTGLNYEAPKYHIPYWVA [NSDHL] | 2.77 ± 0.67 | 3 ± 0.63 |  |  |
| TGQPLPQSIQQAMRYLRNHCLDQV [DLC1] | 2.36 ± 0.093 | 2.4 ± 0.22 |  |  |
| THFTFKDLHFKMFDVGGQRSERKK [GNAI1] | 2.83 ± 0.33 | 2.93 ± 0.15 |  |  |
| TIVKARDKLYHPECFMCSDCGLNL [PDLIM4] | 2.19 ± 0.44 | 2.42 ± 0.19 |  |  |
| TKEGGMLAYYEVCSWKGATKQRIQ [CHIT1] | 2.26 ± 0.53 | 2.91 ± 0.65 |  |  |
| TKKRHTPRGHAESTSNRQPRKQG [SMOC2] |  |  | 2.59 ± 0.62 | 3.3 ± 0.49 |
| TKLLNDEDQVVVNKAAVMVHQLSK [CTNNB1] | 3.6 ± 0.19 | 3.57 ± 0.4 |  |  |
| TLLNPRMIVDVTPYMNPSPFTVSP [CLCN6] | 2.32 ± 0.079 | 2.25 ± 0.081 |  |  |
| TLTWDSGNPEPVSYYIIQHKPKNS [PTPRD] | 2.69 ± 0.12 | 3.05 ± 0.41 |  |  |
| TMAAKKNRQSSDKQNGRVAKVKGH [C18orf25] | 4.53 ± 0.25 | 4.58 ± 0.29 |  |  |
| TNLPIFKLKESTVRRRYSDFEWLR [SNX3] | 2.62 ± 0.3 | 2.53 ± 0.36 |  |  |
| TPAPMSSAWKTVACGGTRDQLFMQ [MYBL2] | 2.75 ± 0.17 | 2.69 ± 0.3 |  |  |
| TPGIDLTRVLAEMREQYEAMAERN [KRT13] | 4.13 ± 0.49 | 4.4 ± 0.32 |  |  |
| TPINQNVSLHQASLGGCSQDFLLF [NFE2L1] | 1.99 ± 0.55 | 2.6 ± 0.58 |  |  |
| TPVMEGYVEVKEGKTWKQICDKHW [LOXL2] | 3.28 ± 0.32 | 3.51 ± 0.37 |  |  |
| TQKFTDMVATANNRQTFVNSAIRF [CHIT1] | 2.85 ± 0.32 | 3.17 ± 0.33 |  |  |
| TQVLEDSEDSFCRRHPGLGKAFPS [TRAF3IP2] | 4.17 ± 0.35 | 4.12 ± 0.39 |  |  |
| TRDYAPPSRGHAYRDYGHSRRDES [RBMY1A1] | 4.54 ± 0.4 | 4.61 ± 0.42 |  |  |
| TRLAFELFAEEQAEGPNRLLYKDG [LPCAT4] | 3.85 ± 0.19 | 4.02 ± 0.2 |  |  |
| TRNSPRGCRLPSISSTTCGRQLEK [SPATS1] | 3.81 ± 0.26 | 4 ± 0.18 |  |  |
| TRRSSYEDSSLPSINALLQAEVLS [HNF4A] | 3.13 ± 0.22 | 3.15 ± 0.31 |  |  |

| Sequence | protein stability index [1] | protein stability index [2] | protein stability index (treatment: DMSO, c terminus: native) | protein stability index (treatment: MLN4924 1 uM, 8 h, c terminus: native) |
| --- | --- | --- | --- | --- |
| TSASFGEESTPGQTNSETAVVALT [HDAC6] | 4.714 ± 0.027 | 5.05 ± 0.19 |  |  |
| TSEESRPRLSQLSVTDVTTSSLRL [TNXB] | 4.18 ± 0.29 | 4.24 ± 0.26 |  |  |
| TSIVQAAAGGVPGGGSNNGKTPVC [PDLIM7] | 4.63 ± 0.17 | 4.81 ± 0.14 |  |  |
| TSLFMTPLDVVKVRLQSQRPSMAS [SLC25A39] | 2.69 ± 0.34 | 3.02 ± 0.19 |  |  |
| TSLLDLISIPITGDTLRTFSLVLV [DYNC2LI1] | 2.76 ± 0.89 | 2.51 ± 0.57 |  |  |
| TSWSQHCPWEPQKQPPWEFLQVLE [SPAG8] | 2.31 ± 0.13 | 2.55 ± 0.29 |  |  |
| TTIKRKREDDKLVVECVMKGVTST [FABP4] | 3.9 ± 0.52 | 3.9 ± 0.19 |  |  |
| TTLLKCYLHTNVALVAPLLRLENN [VPS39] | 2.68 ± 0.54 | 2.77 ± 0.57 |  |  |
| TTPIEEVKGLFKSENCPKVISCEF [LARP4] | 2.9 ± 0.2 | 2.82 ± 0.36 |  |  |
| TTQDLFAINRDTAFPGASHESSGN [RHOBTB3] | 4.57 ± 0.51 | 4.87 ± 0.15 |  |  |
| TVAIGAESEVYSWGKGARGRLGRR [NEK8] | 4.08 ± 0.16 | 4.14 ± 0.15 |  |  |
| TVGLLWFAHHSLFLHVRKATRAMG [TMEM175] | 2.46 ± 0.15 | 2.42 ± 0.39 |  |  |
| TVLLVLEDEDPEEMPKSSDFLIHP [PCDHGC5] | 2.75 ± 0.15 | 2.91 ± 0.21 |  |  |
| TVMMWPLAVYHRLWDRAYVRLKPA [RETREG3] | 2.34 ± 0.23 | 2.27 ± 0.15 |  |  |
| TVNALEIELQAQHSMRNSLESTLA [KRT36] | 3.38 ± 0.31 | 3.38 ± 0.29 |  |  |
| TWLKGKFTELRLLLDEEEALAKKF [TRIM14] | 2.23 ± 0.42 | 2.34 ± 0.23 |  |  |
| VAQCLRDLVAMQWADAAGEAVPEG [ZSWIM9] | 2.92 ± 0.33 | 3.06 ± 0.36 |  |  |
| VAVDYCASENHGCEHECVNADGSY [MATN2] | 5.08 ± 0.13 | 5.07 ± 0.054 |  |  |
| VCRDSVSRKGELTPLPETGYWRVR [TRIM39] | 2.55 ± 0.1 | 2.71 ± 0.57 |  |  |
| VCRIGDWLQERYEIVGNLGEGTFG [CLK3] | 2.22 ± 0.42 | 2.37 ± 0.33 |  |  |
| VCSDYASGYHYGVWSCEGCKAFFK [ESR2] | 2.33 ± 0.35 | 2.56 ± 0.34 |  |  |
| VCVIAIGVVQALIVGYAFHFPHLL [TMEM175] | 3.11 ± 0.62 | 3.09 ± 0.4 |  |  |
| VDSFQIILDSLLFFYDCSNNPISE [TENT5C] | 3.03 ± 0.14 | 3.14 ± 0.41 |  |  |

| Sequence | protein stability index [1] | protein stability index [2] | protein stability index (treatment: DMSO, c terminus: native) | protein stability index (treatment: MLN4924 1 uM, 8 h, c terminus: native) |
| --- | --- | --- | --- | --- |
| VEEQLAQLRCEMEQQNQEYKILLD [KRT17] | 4.75 ± 0.29 | 4.78 ± 0.22 |  |  |
| VFDLPESLGGIRACTLTVFPPEET [KLHL13] | 3.33 ± 0.41 | 3.39 ± 0.37 |  |  |
| VFDLRMMVANILNNEAFMNQEITK [RHOBTB2] | 2.72 ± 0.47 | 2.43 ± 0.46 |  |  |
| VFQHHQYLSPLERKRLAREMQLSE [VENTX] | 2.81 ± 0.26 | 3.08 ± 0.37 |  |  |
| VGHNHTYNMAPSALDSADLPPPSA [NFE2L1] | 4.61 ± 0.16 | 4.43 ± 0.36 |  |  |
| VGKGEILESLQDGAAESPYAYSNG [RAB40C] | 4.88 ± 0.24 | 4.79 ± 0.2 |  |  |
| VHEVLQAVDAGDPAVEACENRRKV [TCF25] | 5.3 ± 0.22 | 5.35 ± 0.097 |  |  |
| VIDGRNVTVTDVDIVFSKIKGKSC [TPPP] | 2.6 ± 0.3 | 2.75 ± 0.41 |  |  |
| VIMQVPERIVVAGNNEDVSFSRPA [MFF] | 3.4 ± 0.3 | 3.47 ± 0.6 |  |  |
| VIVMTTRFEEGGRRKCGQYWPLEK [PTPN9] | 2.12 ± 0.75 | 2.47 ± 0.57 |  |  |
| VKESGERKVTDSISKSLELCNEIS [DLC1] | 4.52 ± 0.11 | 4.82 ± 0.21 |  |  |
| VKIESVKLDFKEKAQAKVGSLDNA [MAP2] | 3.5 ± 0.24 | 3.52 ± 0.24 |  |  |
| VKKYKSMKLEKEEFVTLKAIALAN [ESRRG] | 2.46 ± 0.32 | 2.66 ± 0.2 |  |  |
| VKMDSSIQPGPFRAVLKYLYTGEL [RHOBTB2] | 2.32 ± 0.96 | 2.02 ± 0.45 |  |  |
| VKQKISPYFKSNDVVCKNQDELRN [FAN1] | 3.84 ± 0.24 | 3.64 ± 0.44 |  |  |
| VLADLHSAEQLKAQAIDFINRCSV [SPOPL] | 2.15 ± 0.14 | 2.29 ± 0.39 |  |  |
| VLAIIAREGDCAPEEKIWEELSVL [MAGEA3] | 2.62 ± 0.48 | 2.42 ± 0.4 |  |  |
| VLCEAAFPKKLAFAYLEDLHSEFD [SEC22B] | 2.14 ± 0.28 | 2.31 ± 0.12 |  |  |
| VLFNEKIREQIKKYRRHFLRFCHN [EIF5] | 2.82 ± 0.29 | 3 ± 0.65 |  |  |
| VLNTQGQKTSGQHMIQGAGSLEKA [DLC1] | 4.19 ± 0.42 | 4.23 ± 0.33 |  |  |
